Results on eleven sequences are retold here after the DeepSol protein solubility set.

This data set can be described thus: soluble on expression in E. coli; label from the status in PepcDB or PDB records.
With “MGSDKIHHHHHHAQKKVIIEDEEPNSVMFVSTNKAGDEIIRIMNETRLPRFHEPKAPRFVLTDRQGKFALGIGGYVRATAEYDFGGIVKDVDFYPALIPNKGSADRARNQFQMDISTSTLFLKLVGHTKRLGDFVVYTAANFRGDGKTFELQNAYATFLGFTLGYSYGNFMDLAALPPTIDFAGPNGSAFYRTTQLSYMCDKLKNWKFGVGVEMPSVDGTTNQYLTINTQRMPDFTASAQYNWNANSHLKLAAIVRSMTYSSSVDNKAHSKAGYGLQASTSFNVTPKWQVYGQVNYGKGIGQYLNDLSNLNVDIVPNPEKEGRMQTLPMLGWFAGLQYNISKNVFVSGTYSLSRLYSEHTYPSDEPDMYRKGQYLVANLFWNVTSNLQVGAEYLRGWRTDFSSNTRHANRMNALVQYSF”, the “soluble on expression in E. coli” value is recorded as “not soluble”.

Consider “KREHAKQHGMIRTEITGAEIAEEMEKERRLFQLQMCEYLIKVNEIKTKKGVDLLQNLIKYYHAQCNFFQDGLKTADKLKQYIEKLAADLYNIKQTQDEEKKQLTALRDLIKSSLQLDQKESRRDSQSRQGGYSMHQLQGNKEYGSEKKGYLLKKSDGIRKVWQRRKCSVKNGILTISHATSNRQPAKLNLLTCQVKPNAEDKKSFDLISHNRTYHFQAEDEQDYVAWISVLTNSKEEALTMAFRGEQSAGENSLEDLTKAIIEDVQRLPGNDICCDCGSSEPTWLSTNLGILTCIECSGIHREMGVHISRIQSLELDKLGTSELLLAKNVGNNSFNDIMEANLPSPSPKPTPSSDMTVRKEYITAKYVDHRFSRKTCSTSSAKLNELLEAIKSRDLLALIQVYAEGVELMEPLLEPGQELGETALHLAVRTADQTSLHLVDFLVQNCGNLDKQTALGNTVLHYCSMYSKPECLKLLLRSKPTVDIVNQAGETALDIAKRLKATQCEDLLSQAKSGKFNPHVHVEYEWNLRQEEIDESDDDLDDKPSPIKKERSPRPQSFCHSSSISPQDKLALPGFSTPRDKQRLSYGAFTNQIFVSTSTDSPTSPTTEAPPLPPRNAGKGPTGPPSTLPLSTQTSSGSSTLSKKRPPPPPPGHKRTLSDPPSPLPHGPPNKGAVPWGNDGGPSSSSKTTNKFEGLSQQSSTSSAKTALGPRVLPKLPQKVALRKTDHLSLDKATIPPEIFQKSSQLAELPQKPPPGDLPPKPTELAPKPQIGDLPPKPGELPPKPQLGDLPPKPQLSDLPPKPQMKDLPPKPQLGDLLAKSQTGDVSPKAQQPSEVTLKSHPLDLSPNVQSRDAIQKQASEDSNDLTPTLPETPVPLPRKINTGKNKVRRVKTIYDCQADNDDELTFIEGEVIIVTGEEDQEWWIGHIEGQPERKGVFPVSFVHILSD”, for which the “soluble on expression in E. coli” value was “soluble”.

For “MRLLPVTLLLGAVIFVSTKSTCRTRTKPPSTVPMNEVTEAVTTKKASNVTVKPTTCEASWTRVERSIGGWCLKVYNGFVHQDQASQACIRIGAELSGSESSAERAVIARLGKERMLAASDYKFGTIRVGIARPTTTRAWALTDGNNDGGQQGIQWSKGEPQLGPTSGYSHNCALMWIWASTGTSPYEHGKYFHKFVHLLGRTCTEDLFVESVLLDF”, the “soluble on expression in E. coli” value is listed as “not soluble”.

For “MDVVKEIMAAIKQYETIIIHRHQRPDPDAIGSQVGLAELLRASFPEKNIYQVGGPVEGLEFLAEMDVITDDVYRGALVIVTDTANAPRISDARFSLGDQLIKIDHHPNDEPYGDLVWVNTNASSCSEIIVDFWQQHLAELTMTDNAARLLYAGIVGDTGRFLYPSTSAHTLAVAAQLRTFNFNAADLNRELDQMPLKVAKLAGYIYQNLEIDANGAARVVLPQSILNSYDIVDSETAAIVSMPGKIEDVLSWAIFVEQPEGYYRVRLRSKGPIINTIAKKHHGGGHPLASGANARDAAEIEVIYQEIQAACQEWAQK”, the “soluble on expression in E. coli” value was “not soluble”.

With “MSLDKVTLLLNWYVYGEHAPFFYGKAKGLYAAEGIDLDIQEGRGSAVTIQAVAAGTVQFGYADVPTMIRAAAKGAPVVAVGVALQKSPMSVMGFSDKNIRKPEDIKGKIVATTPGDSMSQIWPLFLKQAGLRASDFQVVSGDAQTKLNAVANGRADLLLGYVMDQSMKLKDATGKDVRPIMFADYGIHMVSSGIITNKDLLKSNPDLVRRFMKATTAAFIGAEKDPGAAVDALLADLPKAGKRETLLEGFALTTPLYHTDETKGRPPFQVTDADMTSTVDLLIEYGGLEASAKDNTKSFYTRDYLPAAGNEGHHHHHH”, the “soluble on expression in E. coli” value was “soluble”.

As to “SLDTEKDCIKAVAAKDGITVIKVKSSNKLLSWHFMRKLFEIFEFYQEPVDMVATSEVGVSLTIDNDKNLPDIVRALSDIGDVTVDKDMVIICIVGDMEWDNVGFEARIINALKGVPVRMISYGGSNYNVSVLVKAEDKKKALIALSNKLFNSRATKA”, the “soluble on expression in E. coli” value is recorded as “soluble”.

As for “HGGEAHMVPMDKTLKEFGADVQWDDYAQLFTLIKDGAYVKVKPGAQTAIVNGQPLALQVPVVMKDNKAWVSDTFINDVFQSGLDQTFQVEKRPHPLNALTADEIKQAVEIVKASADFKPNTRFTEISLLPPDKEAVWAFALENKPVDQPRKADVIMLDGKHIIEAVVDLQNNKLLSWQPIKDAHGMVLLDDFASVQNIINNSEEFAAAVKKRGITDAKKVITTPLTVGYFDGKDGLKQDARLLKVISYLDVGDGNYWAHPIENLVAVVDLEQKKIVKIEEGPVVPVPMTARPFDGRDRVAPAVKPMQIIEPEGKNYTITGDMIHWRNWDFHLSMNSRVGPMISTVTYNDNGTKRKVMYEGSLGGMIVPYGDPDIGWYFKAYLDSGDYGMGTLTSPIARGKDAPSNAVLLNETIADYTGVPMEIPRAIAVFERYAGPEYKHQEMGQPNVSTERRELVVRWISTVGNYDYIFDWIFHENGTIGIDAGATGIEAVKGVKAKTMHDETAKDDTRYGTLIDHNIVGTTHQHIYNFRLDLDVDGENNSLVAMDPVVKPNTAGGPRTSTMQVNQYNIGNEQDAAQKFDPGTIRLLSNPNKENRMGNPVSYQIIPYAGGTHPVAKGAQFAPDEWIYHRLSFMDKQLWVTRYHPGERFPEGKYPNRSTHDTGLGQYSKDNESLDNTDAVVWMTTGTTHVARAEEWPIMPTEWVHTLLKPWNFFDETPTLGALKKDK”, the “soluble on expression in E. coli” value is “soluble”.

For “MGSDKIHHHHHHMTQLKTLPIYDPTLFEGAAEVYAQYRTKYPPAVFDKLTEIFNLNGQGRLLDLGTGPGLIAIPLSTKFQEVVAIDPDPEMLKEAQRQAATAGANNITWLEQGAELINPSLGVFKLATIGRAFHWMERQLVLERLYELLADDGAIALLNTGDDPWKSPLPWKQAAIGVVKKWLGEERRTGQRGQGIRKPVDPPHEVVIANSKFARQEVHEVTFEKSWTVSSYLGYLYTTAFSLKIFYGDKAEEFEADIKDALLAVEPSGHFTEELKATIQVVWKH”, the “soluble on expression in E. coli” value was “not soluble”.

Take “SAGLGANSDVMVKLDDGHLNNSLRSPVQAGVYFRGHIKGGMRPGKKVLVMGIVDHNPKSFAISLTCGDSEDPPADVAIELKVVFTNQQVFRNSCISGESDEENLAFPYFPFVPDQPFRMEIFCQQPCFRVLVDGHHLFDFYHRIQTLSAIDSIKISGDLQITKLG”: the “soluble on expression in E. coli” value is listed as “soluble”.

With “SPTVEELYRNYGILADATEQVGQHKDAYQVILDGVKGGTKEKRLAAQFIPKFFKHFPELADSAINAQLDLCEDEDVSIRRQAIKELPQFATGENLPRVADILTQLLQTDDSAEFNLVNNALLSIFKMDAKGTLGGLFSQILQGEDIVRERAIKFLSTKLKTLPDEVLTKEVEELILTESKKVLEDVTGEEFVLFMKILSGLKSLQTVSGRQQLVELVAEQADLEQTFNPSDPDCVDRLLQCTRQAVPLFSKNVHSTRFVTYFCEQVLPNLGTLTTPVEGLDIQLEVLKLLAEMSSFCGDMEKLETNLRKLFDKLLEYMPLPPEEAENGENAGNEEPKLQFSYVECLLYSFHQLGRKLPDFLTAKLNAEKLKDFKIRLQYFARGLQVYIRQLRLALQGKTGEALKTEENKIKVVALKITNNINVLIKDLFHIPPSYKSTVTLSWKPVQKVEIGQKRASEDTTSGSPPKKSSAGPKRDARQIYNPPSGKYSSNLGNFNYERSLQGK”, the “soluble on expression in E. coli” value is listed as “soluble”.

With “MGSDKIHHHHHHMTDLADLTCVGPGTPMGTLMRQYWVPAAKSSELKRDGDPMRLMLLGEKLIAFRDSEGRVGVLDHRCPHRCASLFLGRNEESGIRCVYHGWKFDVAGRCVDMPSVPPHQDFKDKVHAKAFRTAERNGLVWVYMGDAAEPPPLPAIEANLVADCEIWCLQRDCNWLQALEGDIDTSHVGFLHVGSLKPDDLADDHPMRPTVLDRAPEYAVTNTAWGTMYGGYRPNDDGQRSWRVAHFMFPFWTQTPNNRFSSRAIARAWVPMDDEHSMLFDITCGVDEGNPAYSSTRKTGEPLFAPFEYAPATTDWFGRWRCVDDRRNDWGIDRELQRNGSQYTGIPNITMQDQAVTESMGPIIDHSYEHLAPTDQMIARTRRRLLLATQALSEQGTLPPGAQDSDVFFGARAGSFLCDPGLPFETAYATQLETATRWAGDKVVS”, the “soluble on expression in E. coli” value was “not soluble”.
